Measurements: PMC12736101

Test: SEC; Superdex 200 10/300 GL, phosphate-buffered saline, 0.5 mL/min, ambient temperature, UV 280 nm; the SEC 'monomer' peak is the native covalent dimer

dulaglutide, original reference drug (Trulicity), sequence (chain): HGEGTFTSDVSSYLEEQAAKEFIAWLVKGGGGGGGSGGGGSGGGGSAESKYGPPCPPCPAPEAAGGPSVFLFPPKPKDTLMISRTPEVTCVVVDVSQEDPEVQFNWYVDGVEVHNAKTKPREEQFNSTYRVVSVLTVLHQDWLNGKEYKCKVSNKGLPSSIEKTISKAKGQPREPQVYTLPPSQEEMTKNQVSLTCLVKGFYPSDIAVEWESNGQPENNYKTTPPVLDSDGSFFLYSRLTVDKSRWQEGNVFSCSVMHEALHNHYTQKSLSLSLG

dulaglutide, original reference drug (Trulicity)
percent in the SEC 'monomer' peak (the native covalent dimer): 97.5% monomeric form in the Trulicity sample
